Measured values: the NTF2 design screens of Basanta et al. (2020)

Experiment: protease stability score; higher = more stable; yeast display proteolysis, trypsin and chymotrypsin;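 further: log10 excess protease needed over predicted unfolded state with 0 meaning unfolded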

In order of rising protease stability score:
1. DEKALRVAEEAIKAVQTGDPKKFATMADENARVRIGDKEVKGRENQVQLMKDWKHHMRWEQDVKSVTANGDKVEVKFEQVSETNGKPDHDTWNVHFTAQNGEVKSMTMTSNK  -0.504
2. DEKALRSAEEWVRQLNENNEDTLMKLADPNAEFSIGDKTVHGREQLREWIKKTLDKMHVHVKDVKYTDSGDKAQIDIDRVNEHNGRPDEDNVEMTMHLDNGTIHSVDVRKKS  -0.303
3. DEHRLATEAIDQFERALQSGNPDEITKMADPDARVHVGDTQLRGREELQRYMHEVRQRHDQVEVHVHRISIDGNKINIHFVLNLNHNGQTDSQSYEMTARVQNGSAVVKEIIQQ  -0.296
4. DEHNVRLAERLLHAIDTNDPKRVKEQVDKDVEYEVGDKRVHGRDDYIKQVETEIRQMSIHIQSMDIHSNGDKVNVRVTYTFTVDGRPQEDTVDYEVQFDNGKVRTVRNRFSEEQEERQKK  -0.245
5. DEKALQLLQRIMEAWQKGDPQQVVDNIDKDARIHIGDKHLHGREDARRVVEQEMTEARLSFDVKHVSVQGDKVKVSFHAQLDTNGRPKTYRASATMNASNGKAKQMDVKEDK  -0.232
6. DEHSIAEQLAHQFIRAQESGDPDQVDRLADENVRVQIGDKQVKGRDVVRRTMQTWRDRSDHITARLRDVSVRNGQINLLIELDYRQNGQTQHHTLVIVAEVHNGQVRMVQIEIR  -0.221
7. DEKALRQFEKFMEAIKNGDEEKVVQLVDPNATVRYGDKKVEGREQIKDQMKKLHEEMRIQVNSVDVEDHNGRAHVRIDVIQEHNGTPDRAQLRANMSASNGRIKDLEFTKTK  -0.148
8. DEHRRAEEAAKRAMEIWKTGNERDAEDLADKNVSIDYGDKKYHGRHQIIKFFQELREDVDHVDLKVNDMDVKPGRAVANLRYVLNNDGRNRHDQHRMTLKLEGDKVYLKKIQQG  -0.108
9. DEHTERTLSRLVKRNDEKTMADRADENARAEYGDTTYHGKEEFKKWVNKMEERVDHRDLKEIRVHGNKIKVKMDQEVNGRRVEMEFEAHYHNGRLKFEVMKVRDEEQKEQLKQQQT  -0.09
10. DEHQRRKAKEFLDALRDGNPDDVKKYVDPNARRTVGDKSIHGRDQISHHVEKLKKKMRIEFRIQTITVHGNHIDIKAKMEFEINGKPNTHTFSQSMHAHNGKIKDIHVRIPEEVLRKSKR  -0.06
11. DEKALENLRRVNDARKTNDEDRIKKLLDKDARVQVGDRQIKGRENVSDTLRKLEEHMRIEIKDYRVDVQNGRAKLEVHWQFEVNGKPRKVTYDWEAEANNGKIQTMHAQFTEEDKRKRKQ  -0.039
12. DEHVSRNLLRVLKLMHKGNFEEVVNNMDPNARIKVGDKEVHGREKEQTKNRKKEKHMELKVDDYRFRDNNGQVEAEVDQKFTHDGQPRSERFKFRVEAHNGRIKKQSQKEDR  0.007
13. DEKAMDKVRKVKEIEDEGDSDEFNKMFDPNARFNVGDKSVHGMETYVDQLSKELKRLKRSVRIKSMHAEGNRVDMTVKYEVDVNGRPYRAQVHIIYTFHNGHFSHVTYRLDPQSQREFQK  0.017
14. DEHVIKNFLRVVRTNNEDSFVKMADKDAEITIGDKRYHGREDVHKAAKQRKDAFDEVSIVDYRIDGDKIKVRQSATVNGKKLDFEYTMVLHNGRVRTLDMKARDEEMERRLREIID  0.023
15. DEHVEKRVDEWWKALRQNNPDEANKNMDPNAKLHIGDKTVHGREEAKRQIENRFKEMRFSYKVRHLTAENGEVEIEATFKVEHNGQPRSRSMRMSINVHNGRIVDIQVDIDPRDQQKFRK  0.041
16. DEKALEFIRKFEEVMKKGDHDTLKEMMDPNARFQYGDKTVHGREHAADWAKRVRDQMRVRIISVKYTARGNKATIQVRNQVNFNGRPLHDHFEVSFDMHNGKIKHASRTLSEEQRQRLEQ  0.062
17. DEHVLHELERAFRDNDFERLQEQFDENARVEIGDKTYHGKNQVQQAMNDFKTAYDHYQLKTFDIHGEKVFADVKATVNGHDVEFEWEMTASNGRIKKLHIQARDEEVKEQLKRALS  0.109
18. DEHTSAHNFIEHEWKVFSTNDKKSMKELIDKNVKIDVGDKQVNGREEAARQEVETAKRVDHVDVKLQHLSVHNGRIKAQFRRVLRVDGQDNDEVLRFVIQLNNGNAQAKDKHET  0.115
19. DEHVLRQVEEWLHNVQTGDEDRLIELVDPNARVEIGDKVIHGMHRMARDLRRKRENMDINIRDYRVQVRGDKARVDIEEQVHHNGRPNSRRFEIQVDADNGRVKQIKWQSES  0.125
20. DEHVNKLAHRLLEAIEEGNPEMFKELADEDVHFQVGDKSYHGMEDYANSIVEKLRQMHFEIKSYSFRNEPGRATLDLRVQMEHDGQPRESKNTVDVKAKNGRVKRVKFREKR  0.155
21. DEKAKHMVERFFTALTTGDEQKLRDNVDPNAKFHYGDKRISGMEDNARTLVEEQKEIRFQYDRMHLDAKGDTIDVKLKYIADVNGKPIDVHVDVKFQFQNGRVQSISERIDPRVEKEMHS  0.162
22. DEHVSRNFENMLRAIKSGNEEEIRELIDKNVRVQVGDKEIHGREEAVKDFKRRHEEIRFNLEVKRIEVRGNKVDVDAEASMTVNGKPYEWHVNIEVRARNGRIKYLNYRVPEEQVKKVES  0.177
23. DEHSDERRLQTAMHALEQNDPDEIKRQMDKDASARYGEKDVTGRDNAKKAASDFKKKVDHVEIKHYDIQGDKLHAKAKVNINGQHIEIIMVLVAHNGHVQRLQVDHG  0.227
24. DEHVEHLVHEIMDALRTNDPDRLRQLMDPNAHAQIGDKQLHGRRTMVDHWQDTLEEIRVSIDVKSFSVKNGRADMTAKVEREDNGKPDDRTADIHIEFHNGKAVRIDVKYKG  0.275
25. DEKAKDLFSKVMEAIRTGDEQKIRDNADPNVSVRYGDRNLTGREKVAETNYKIKRHMRIKIDHVRMEVHNGEAEVNVKRVITINGRPTRDTYRLIVVAQGDKLKSVVWKFSEEQRKRLEQ  0.411
26. DEHNVELARKLRSAVEKNSEKEAKNNIDKDVRAQYGDQEINGREHFAEWVQRLTHHIQWEIKSVTVRVTNGRVDVKMHVREEQNGKPREMDVKMTVVFDNGRIENVQVKKHG  0.448
27. DEHNVHKVKSMIRAMKTGDEETAQRLADPNVHVKIGDHTLQGRSQLKEYVKKLKTQAKFDFREVDAQDHNGHVKVNVDVVARINGKPVRYEVIIHVTFHNGKIKSAEYQVPQDYLDTLES  0.522
28. DEKALNHANKMLEAYETGNEKQVADQVDKDVRVEIGDKFYHGRENLRERMKKLMKEARFRITVKSVKVQGDQAKIDAEVTHTHNGQPRKRHMSMTVDVQGDKIKQVHVQYHG  0.523
29. DEHNYTILQEIWEALKTNNKERFDELADPNARFQVGDKEFHGMETAARHLIRRHTEMRLDMKVDDYRLNGDHLSVDAKVRFRVNGQPNHYQMTLHAQIQGDKLKRMVWRIPESVLERIKS  0.66
30. DEHVKETFHSFLHAQTTGDPDKMHKLFDKDARVRYGDKVYHGRETLMRIFHKLRRNIRVDVKFEDIKVDNGKLHAEADMTINHDGKPRQKKVIIELVLHNGKIKQFNQELRG  0.723
31. DEHVLELAKELFDALSFGSPEDVHRNADKNARFRIGDTEIKGMEQYVETVHKIKRELRLSITVKSMTAHNGDADIKADAVFNHNGTPRRVKIEVTMHVHNGKAVSVDIQFRK  0.848
32. DEHTEKKRADEIKHAMRENDEKKLNDQMPPDVRMDVGDKQLHGRDEVIRHLQTQLRHADHVEIKHVEVTNGRVSIDAVFDVNGTRKRQVVVFVFHNGRAKEIHIEDK  0.861
33. DEHVQQALERYWDAVTTNNPEQAVNNVDPNVEIVVGDKTLTGREDVHKHIKDVKDKQNVEIKSMQLRVHNGRVRARFKFEVNHNGEPTTDVVVVEAEVKNGKIQRVEARRDK  0.899
34. DEHRQLEEVLSQIQDALRTNNPDDWADQADENAEFNIGDKSFSGREKVREYAETHMKDADHVSMDVRRVDVRNGRARVSARITAKVNGETKDVTYDMVFKFHNGQAKLVQMNES  0.996
35. DEHSDAKRVLEELSKAMENGDEQRVEDQLDENVRINVGENHYHGREHARLWFKQIVDHVDHVRDSMEDYRNQGENFVYVMSVVYQSNGQEKSIRIVYVMKNHNGTVRMVNVHEG  1.02
36. DEHRVQTHAEEFMKLLQRGDEKSLADLMDPNASVKIGDKVYHGREQIRHAMRELRERVDHIHVKDIQAQGNHINVDFVLNVNGKHQKYELHVDFSNGRVKSLSMQTS  1.69
